Substitutions are numbered along the chain they refer to. In names and notes the source's numbering stands.
B1: human IL-12p40 (ligand)
chain: IWELKKDVYVVELDWYPDAPGEMVVLTCDTPEEDGITWTLDQSSEVLGSGKTLTIQVKEFGDAGQYTCHKGGEVLSHSLLLLHKKEDGIWSTDILKDQKEPKNKTFLRCEAKNYSGRFTCWWLTTISTDLTFSVKSSRGSSDPQGVTCGAATLSAERVRGDNKEYEYSVECQEDSACPAAEESLPIEVMVDAVHKLKYENYTSSFFIRDIIKPDPPKNLQLKPLKNSRQVEVSWEYPDTWSTPHSYFSLTFCVQVQGKSKREKKDRVFTDKTSATVICRKNASISVRAQDRYYSSSWSEWASVPCS
notes: p40 monomer; also called p40 subunit
B2: human IL-23 (ligand)
chain 1: B1 chain
chain 2: RAVPGGSSPAWTQCQQLSQKLCTLAWSAHPLVGHMDLREEGDEETTNDVPHIQCGDGCDPQGLRDNSQFCLQRIHQGLIFYEKLLGSDIFTGEPSLLPDSPVGQLHASLLGLSQLLQPEGHHWETQQIPSLSPSQPWQRLLLRFKILRSLQAFVAVAARVFAHGAATLSP
notes: Recombinant (Ebioscience); HIS-tagged in flow cytometry, biotinylated in some assays; also called hIL-23; rhIL-23
B3: human IL-12 (ligand)
chain 1: B1 chain
chain 2: RNLPVATPDPGMFPCLHHSQNLLRAVSNMLQKARQTLEFYPCTSEEIDHEDITKDKTSTVEACLPLELTKNESCLNSRETSFITNGSCLASRKTSFMMALCLSSIYEDLKMYQVEFKTMNAKLLMDPKRQIFLDQNMLAVIDELMQALNFNSETVPQKSSLEEPDFYKTKIKLCILLHAFRIRAVTIDRVMSYLNAS
notes: Recombinant (Peprotech); FLAG-tagged IL-12 in the flow cytometry assays, biotinylated in the IL-12Rβ2 assay; also called hIL-12
B4: scFv CP-A6 (scFv)
scFv: QVQLVQSGAEVKKPGASVKVSCKASGYTFTDYYLHWVRQAPGQGLEWMGWIDPENGDTEHAPKFQGRVTMTTDTSTSTAYMELRSLRSDDTAVYYCNANKELRYFDVWGQGTMVTVSSGGGGSGGGGSGGGGSEIVMTQSPATLSVSPGERATLSCRASQSISINLHWYQQKPGQAPRLLIYFASQSISGIPARFSGSGSGTEFTLTISSLQSEDFAVYYCQQSNSFPLTFGGGTKVEIKR
notes: scFv-80 variant: VH Y59H; not shown: proprietary C-terminal FLAG tag
B5: scFv CU-A6 (scFv)
scFv: B4 scFv with F29L, H60Y, T112A, S196F
notes: scFv-80 variant: VH F29L, T107A; VL S63F; not shown: proprietary C-terminal FLAG tag
B6: Antibody 35 (antibody, human IgG1, kappa, V domains shown)
VH: QVQLVQSGAEVKKPGASVKVSCKVSGYTLTDYYMHWVRQAPGKGLEWMGWIDPENGDTEYAPKFQGRVTMTEDTSTDTAYMELSSLRSEDTAVYYCNACKELRYFDVWGQGTMVTVSS
VL: EIVMTQSPATLSVSPGERATLSCRASQSISINLHWYQQKPGQAPRLLIYFASQSISGIPARFSGSGSGTEFTLTISSLQSEDFAVYYCQQSNSWPLTFGGGTKVEIKR
B7: Antibody 37 (antibody, human IgG1, kappa, V domains shown)
VH: B6 VH with Q1E, S17T, V20I, L29F, R38Q, M70I, E72A
VL: B6 VL with M4L, V13L, E70D, Q79E, S80P
notes: Superhumanized, backmutated heavy chain
B8: Antibody 34 (antibody, human IgG1, kappa, V domains shown)
VH: B6 VH with Q1E, S17T, V20I, L29F, R38Q, M70I, E72A
VL: B6 VL
B9: Antibody 40 (antibody, human IgG1, kappa, V domains shown)
VH: B6 VH with Q1E, S17T, V20I, L29F, R38Q, M70I, E72A, N97A, A98T
VL: EIVLTQSPDFQSVTPKEKVTITCRASQSISINLHWYQQKPDQSPKLLIKFASQSISGVPSRFSGSGSGTDFTLTINSLEAEDAATYYCQQSNSWPLTFGGGTKVEIKR
notes: Superhumanized PMA204
B10: Antibody 36 (antibody, human IgG1, kappa, V domains shown)
VH: B6 VH with V24A, L29F, K43Q, E72T, D77S, S84R, E89D
VL: B6 VL
B11: Antibody 176 (antibody, human IgG1, kappa)
heavy: not shown
light: DIQMTQSPSSVSASVGDRVTITCRASQSISINLHWYQQKPGKAPKLLIYFASQSISGVPSRFSGSGSGTDFSLTINSLQTEDFATYYCQQSNSFPLTFGGGTKVEIKRTVAAPSVFIFPPSDEQLKSGTASVVCLLNNFYPREAKVQWKVDNALQSGNSQESVTEQDSKDSTYSLSSTLTLSKADYEKHKVYACEVTHQGLSSPVTKSFNRGEC
B12: Antibody 178 (antibody, human IgG1, kappa, V domains shown)
VH: EVQLVQSGAEVKKPGATVKISCKASGYALSDYYLHWVRQAPEKGLEWMGWIDPENGDTEYAPKFQGRVTITADTSTDTGYLELSSLRSEDTAVYYCAANKELRYFDVWGQGTLVTVSS
VL: DIQMTQSPSSVSASVGDRVTITCRASQSISINLHWYQQKPGKAPKLLIYFASQSISGVPSRFSGSGSGTDFSLTINSLQTEDFATYYCQQSNSFPLTFGGGTKVEIKR

Assays:
[1] = biological target: T1, IL-12Rβ1 on stably transfected Jurkat cells (human, UniProt P42701 24-662); assay: flow cytometry; binding blocked by Antibody 202.1
T1 construct: whole, on cells; Cell line negative for IL-12Rβ2 and IL-23R; also called IL-12Rβ1 Jurkat cell line
Outline: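 Jurkat cells stably transfected with IL-12Rβ1 were used. FLAG- or HIS-tagged cytokine at 250 ng/ml was preincubated with antibody (10 to 0.01 μg/ml, half-log dilutions) for one hour at 37° C, then cells at 10⁶/ml were added for a further hour. Cells were washed in PBS/10% FBS. Cell-bound cytokine was detected with phycoerythrin anti-HIS or FITC anti-FLAG on a Beckman-Coulter Quanta, and blocking of receptor binding was the read-out.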

human IL-12 [2] = biological target: B3; assay: SPR, purified scFv captured via FLAG
Experimental: (§1) A number of the scFv variants presented in TABLE 4 were selected for full characterization of binding kinetics, encompassing a broad range of mutation profiles and binding affinities. Large-scale protein expressions were carried out for each scFv. The expressed scFvs were purified as monomeric proteins and tested for binding against IL-12 and IL-23 by SPR (TABLE 5).
(§2) Purified scFvs were subjected to full kinetic characterization using a BIAcore T100 biosensor (GE Healthcare). Approximately 10,000 RU of the proprietry FLAG-specific capture molecule was immobilized on a CM5 Series S Sensor chip, using standard amine coupling chemistry in flow cells (FC) 1 and FC2 (or alternatively FC3 and FC4) of the BIAcore T100 Biosensor. The running buffer used was HBS-EP+ (BIAcore) and interactions measured at 30° C. or 35° C. to promote differentiation of scFvs with very similiar kd values. Peak purified FLAG-tagged scFvs (prepared as described in the previous paragraph) were diluted to 10 nM in running buffer, and captured on FC2 at a flow rate of 10 μl/min in order to capture 50 RU of scFv (typically 60 sec was sufficient to capture this level of tagged scFv). After an appropriate stabilization period, the target, IL-12 or IL-23, were passed over FC1 and FC2 at a flow rate of 60 μl/min at concentrations ranging from 81 nM to 0.13 nM (using a five-fold dilution of IL-12) and 81 nM to 1 nM (using a three-fold dilution of IL-23). The contact time for association was 180 sec and dissociation measured for 10 mins for the highest concentration and 300 sec for all other concentrations in the series. The sensorgram data from FC2 was subtracted from FC1 and a buffer only control. The curves were fitted using a 1:1 Langmuir equation to generate the kₐ, kd and KD values.

human IL-23 [3] = biological target: B2; assay: SPR, purified scFv captured via FLAG
Experimental: as §1, §2

human IL-23 [4] = biological target: B2; assay: SPR, purified scFv captured via FLAG; LOD estimated 1 × 10^-5 s^-1
Experimental: as §1, §2

human IL-23 [5] = biological target: B2; assay: SPR screen, crude scFv captured via FLAG
Experimental: Approximately 6500 individual scFvs recovered from the ribosome display reactions were expressed and screened for binding against IL-23 using a high-throughout SPR assay. The variants were ranked according to the kd and the best variants were sequenced at the nucleic acid level.
High-throughput SPR screening was conducted using a BIAcore A100 biosensor (GE Healthcare). Approximately 10 000 RU of the proprietary FLAG-specific capture molecule was immobilized on a CM5 Series S Sensor chip, using standard amine coupling chemistry on Spots 1 & 5 (outer spots) and 3,000RU to Spots 2 & 4 (inner spots) in each of the four flow cells of the BIAcore A100 Biosensor. The running buffer used was HBS-EP+ (BIAcore) and all interactions measured at 25° C. Crude periplasmic preparations of FLAG-tagged scFvs (prepared as described in the previous paragraph), were diluted two-fold in running buffer before capturing at a flow rate of 5u1/min for 60 sec. Approx. 100RU (on outer spots) and 50RU (on inner spots) of tagged scFv was captured. Following a 2 min stabilization period, IL-23 was passed over all spots of all four flow cells simultaneously at a flow rate of 30u1/min for 120 sec and dissociation monitored for 200 sec. Generated sensorgrams were referenced against the unmodified spot 3 of each flow cell, and fitted using a 1:1 Langmuir equation with R1 set to local to account for varying ligand densities to generate the kₐ, kd and KD values.

human IL-12 [6] = biological target: B3; assay: ELISA, coated IL-12
Outline: (§3)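 Maxisorp plates were coated overnight at 4° C with cytokine at 1 μg/mL in carbonate buffer pH 9.6, then blocked for 1 hour at 25° C with 1% BSA in PBS. Antibody titrations were allowed to bind for 1 hour at 25° C and detected with goat anti-human IgG or anti-murine immunoglobulin HRP (1:2000, 1 hour), followed by TMB development stopped with 1M HCl. Binding is reported as absorbance. Readings were taken at 450 nm against a 620 nm reference.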

human IL-23 [7] = biological target: B2; assay: ELISA, coated IL-23
Outline: as §3

human IL-12 [8] = biological target: B3; assay: ELISA
Outline: as §3

human IL-23 [9] = biological target: B2; assay: ELISA
Outline: as §3

Binder: B1
binding result [1]: binds

Binder: B2
binding result [1]: binds

Binder: B3
binding result [1]: binds

Binder: B4
Kd (human IL-12 [2]): 0.061 nM | koff (human IL-12 [2]): 0.00012 s⁻¹ | kon (human IL-12 [2]): 2e+06 M⁻¹ s⁻¹ | kon (human IL-23 [3]): 310000 M⁻¹ s⁻¹ | koff (human IL-23 [4]): < 1e-05 s⁻¹ | koff (human IL-23 [5]): 0.00019 s⁻¹

Binder: B5
Kd (human IL-12 [2]): 0.048 nM | koff (human IL-12 [2]): 9.7e-05 s⁻¹ | kon (human IL-12 [2]): 2e+06 M⁻¹ s⁻¹ | kon (human IL-23 [3]): 300000 M⁻¹ s⁻¹ | koff (human IL-23 [4]): < 1e-05 s⁻¹ | koff (human IL-23 [5]): 0.00019 s⁻¹

Binder: B6
binding result (human IL-12 [6]): binds | binding result (human IL-23 [7]): binds

Binder: B7
binding result (human IL-12 [6]): binds | binding result (human IL-23 [7]): binds

Binder: B8
binding result (human IL-12 [6]): binds | binding result (human IL-23 [7]): binds

Binder: B9
binding result (human IL-12 [6]): binds | binding result (human IL-23 [7]): binds

Binder: B10
binding result (human IL-12 [6]): binds | binding result (human IL-23 [7]): binds

Binder: B11
binding result (human IL-12 [8]): binds | binding result (human IL-23 [9]): binds

Binder: B12
binding result (human IL-12 [8]): binds | binding result (human IL-23 [9]): binds
